According to article PMC3175028 (2011):

Legend:
[1] = biological target: T1, hedKR (Streptomyces griseoruber, UniProt Q67G28); test: steady-state inhibition kinetics of trans-1-decalone reduction; type: biochemical
[2] = test system: O[C@H]1CCCc2ccccc21; test: steady-state kinetics of oxidation, A340; type: biochemical, Streptomyces griseoruber; conditions: NADP+
[3] = biological target: T1, hedKR; test: […] Å co-crystal structure; type: binding
[4] = biological target: T1, hedKR; test: steady-state kinetics of reduction; type: biochemical

| Molecule | Km [2] [mM] | kcat [2] [s⁻¹] | kcat/Km [2] [M⁻¹ s⁻¹] | further results |
| --- | --- | --- | --- | --- |
| O=c1c(O)c(-c2ccc(O)c(O)c2)oc2cc(O)cc(O)c12 [compound 22, quercetin] |  |  |  | Ki [1]: ~114 µM |
| hedKR (Streptomyces griseoruber; N92P) | 14.1 ± 1.36 | 0.0323 ± 0.00166 | 2.29 ± 0.249 |  |
| hedKR (Streptomyces griseoruber; N92L) | 4.32 ± 0.521 | 0.169 ± 0.00653 | 39.1 ± 4.96 |  |
| NC(=O)C1=CN([C@@H]2O[C@H](COP(=O)(O)OP(=O)(O)OC[C@H]3O[C@@H](n4cnc5c(N)ncnc54)[C@H](OP(=O)(O)O)[C@@H]3O)[C@@H](O)[C@H]2O)C=CC1 [NADPH] |  |  |  | 2.4 Å co-crystal structure [3]: There is clear electron density for NADPH in each monomer of the crystal structure. |
| O=C1CCC[C@H]2CCCC[C@H]12 (relative stereo) [trans-1-decalone] |  |  |  | Km [4]: 591 ± 147 µM |
